One may read the Kd as the concentration at which binding is half-saturated.

This data set concerns the target hemagglutinin HA1 subunit H5 (recombinant, Abcam ab190125) (Influenza A virus A/Vietnam/1203/2004 …, UniProt Q6DQ33 17-346). The data set can be described thus: SPR; 10 mM K+. Particulars: protein: commercial. In general terms: Surface plasmon resonance follows binding to a sensor surface in real time, without labels.

Consider TTGGGGTTATTTTGGGAGGGCGGGGGTT (structured_DNA) [RHA0385], for which the Kd came out at 13 ± 3 nM.

In the case of TTGGGGTTATTAAGGGAGGGCGGGGGTT (structured_DNA) [G7-TTATTAA], under “parallel intramolecular G4”, the Kd worked out at 30 ± 10 nM.

In the case of TTGGGGTAAGAAGGGAGGGCGGGGGTT (structured_DNA) [G7-TAAGAA], the dissociation constant (Kd) amounted to 60 ± 10 nM.

For the molecule TTGGGGTTAGGGAGGGCGGGGGTT (structured_DNA) [G7-TTA], the Kd is 20 ± 6 nM.
